Changes are numbered by the printed parent chain. Numbers in names are those of the source.
Molecular target: T1, EsCas13d, nuclease-dead (Eubacterium siraeum, UniProt B0MS50, R295A;H300A;R849A;H854A)
T1 sequence: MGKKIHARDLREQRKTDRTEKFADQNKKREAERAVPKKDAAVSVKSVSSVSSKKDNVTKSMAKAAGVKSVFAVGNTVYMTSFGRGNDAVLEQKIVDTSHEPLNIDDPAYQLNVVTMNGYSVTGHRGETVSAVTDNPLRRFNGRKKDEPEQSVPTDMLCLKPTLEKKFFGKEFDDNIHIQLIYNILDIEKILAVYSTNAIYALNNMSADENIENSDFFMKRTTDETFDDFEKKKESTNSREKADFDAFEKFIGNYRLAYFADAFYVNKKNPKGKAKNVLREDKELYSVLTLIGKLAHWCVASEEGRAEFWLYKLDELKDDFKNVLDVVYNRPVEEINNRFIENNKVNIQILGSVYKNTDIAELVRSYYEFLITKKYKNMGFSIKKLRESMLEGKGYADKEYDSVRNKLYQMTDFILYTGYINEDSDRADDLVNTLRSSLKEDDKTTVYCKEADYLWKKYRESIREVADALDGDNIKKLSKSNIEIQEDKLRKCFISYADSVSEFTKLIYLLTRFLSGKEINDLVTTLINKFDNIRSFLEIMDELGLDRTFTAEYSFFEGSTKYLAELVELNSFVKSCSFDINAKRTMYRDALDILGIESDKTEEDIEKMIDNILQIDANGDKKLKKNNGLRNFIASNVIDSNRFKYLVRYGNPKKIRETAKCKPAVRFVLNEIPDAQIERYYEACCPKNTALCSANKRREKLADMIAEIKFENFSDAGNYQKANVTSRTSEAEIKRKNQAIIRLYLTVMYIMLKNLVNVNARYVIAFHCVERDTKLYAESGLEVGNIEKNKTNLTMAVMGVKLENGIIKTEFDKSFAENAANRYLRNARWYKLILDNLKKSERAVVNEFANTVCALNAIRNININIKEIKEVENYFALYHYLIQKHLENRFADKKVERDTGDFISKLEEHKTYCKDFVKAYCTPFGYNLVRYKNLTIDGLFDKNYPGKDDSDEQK
Assay: crRNA (strand 1, pre-loaded); Mg2+; 40 mM Tris-HCl pH 7.5, 150 mM NaCl, 6 mM MgCl2, 1 mM DTT, 0.1% Tween-20, 0.2 mg/ml BSA; 25 C; 10 min per concentration, then washed
Settings: tags: His6-TwinStrep-SUMO cleaved; N-terminal SNAP kept (SNAP-Surface 488); label: 3' end held by stalled T7 RNA polymerase

B1: target 1 insG 3' of 16,insA 3' of 10 (mixed)
RNA 1: CACCCGUGCAAAAAUGCAGGGGUCUAAAACUGAGCGGAUAACCUCUCUAUGG
RNA 2: GGGAAUGGAUCCACAUCUACGAAUUCGUACCAUAGAGGAGGUUAAUCCGCUCACCGAGAUCGGAAGAGCACACGU
- Kd: 19.9 ± 1.5 nM

B2: target 1 insU 3' of 17,insA 3' of 13 (mixed)
RNA 1: B1 RNA 1
RNA 2: B1 RNA 2 with A36U, G37A, G41A, U42G, A44U
- Kd: 13.1 ± 1.3 nM

B3: target 1 U3A,A9G (mixed)
RNA 1: B1 RNA 1
RNA 2: GGGAAUGGAUCCACAUCUACGAAUUCGUACCAUAGAGAGGUUGUCCGCACACCGAGAUCGGAAGAGCACACGU
- Kd: 7.34 ± 0.29 nM

B4: target 1 insA 3' of 19,insC 3' of 3 (mixed)
RNA 1: B1 RNA 1
RNA 2: B1 RNA 2 with G35A, A36G, G37A, A45U, U46C, C48G, G49C, C50U, U51C
- Kd: 17.4 ± 1.9 nM

B5: target 1 U8G,U19A (mixed)
RNA 1: B1 RNA 1
RNA 2: B3 RNA 2 with U33A, G43A, U44G, A49U
- Kd: 61 ± 13 nM

B6: target 1 insC 3' of 22,insA 3' of 3 (mixed)
RNA 1: B1 RNA 1
RNA 2: GGGAAUGGAUCCACAUCUACGAAUUCGUACCCAUAGAGAGGUUAUCCGCUACACCGAGAUCGGAAGAGCACACGU
- Kd: 11.8 ± 0.5 nM

B7: target 1 insC 3' of 17,insU 3' of 17 (mixed)
RNA 1: B1 RNA 1
RNA 2: B1 RNA 2 with A36C, G37U, G38A, A39G, G40A, U42G, A44U
- Kd: 95 ± 14 nM

B8: target 1 insG 3' of 22,insC 3' of 17 (mixed)
RNA 1: B1 RNA 1
RNA 2: GGGAAUGGAUCCACAUCUACGAAUUCGUACGCAUAGCAGAGGUUAUCCGCUCACCGAGAUCGGAAGAGCACACGU
- Kd: ~70 nM

B9: target 1 insC 3' of 20,insG 3' of 1 (mixed)
RNA 1: B1 RNA 1
RNA 2: B6 RNA 2 with C32A, A33C, A51C, C52A, A53G
- Kd: 9.3 ± 0.4 nM

B10: target 1 insA 3' of 21,insA 3' of 8 (mixed)
RNA 1: B1 RNA 1
RNA 2: B6 RNA 2 with C32A, C46A, G48C, C49G, U50C, A51U
- Kd: 38.9 ± 1.8 nM

B11: target 1 A16C,C22A (mixed)
RNA 1: B1 RNA 1
RNA 2: B3 RNA 2 with C30A, A36C, G43A, A49U
- Kd: 71 ± 7 nM

B12: target 1 A16C,G17A (mixed)
RNA 1: B1 RNA 1
RNA 2: B3 RNA 2 with G35A, A36C, G43A, A49U
- Kd: 52 ± 4 nM

B13: target 1 insC 3' of 10,insC 3' of 5 (mixed)
RNA 1: B1 RNA 1
RNA 2: B1 RNA 2 with G38A, A39G, G41U, U43C, A45U, U46C, C48G, G49C
- Kd: 11.1 ± 1.1 nM

B14: target 1 U3A,G17A (mixed)
RNA 1: B1 RNA 1
RNA 2: B3 RNA 2 with G35A, G43A
- Kd: 46 ± 5 nM

B15: target 1 U10G,C22A (mixed)
RNA 1: B1 RNA 1
RNA 2: B3 RNA 2 with C30A, U42G, G43A, A49U
- Kd: 60 ± 14 nM

B16: target 1 insC 3' of 12,insG 3' of 2 (mixed)
RNA 1: B1 RNA 1
RNA 2: GGGAAUGGAUCCACAUCUACGAAUUCGUACCAUAGAGAGGCUUAUCCGCUCGACCGAGAUCGGAAGAGCACACGU
- Kd: 9.8 ± 1.2 nM

B17: target 1 G15C,C22A (mixed)
RNA 1: B1 RNA 1
RNA 2: B3 RNA 2 with C30A, G37C, G43A, A49U
- Kd: 63 ± 12 nM

B18: target 1 C2U,G5U (mixed)
RNA 1: B1 RNA 1
RNA 2: B3 RNA 2 with G43A, G47U, A49U, C50U
- Kd: 23.2 ± 1 nM

B19: target 1 insU 3' of 12,insA 3' of 6 (mixed)
RNA 1: B1 RNA 1
RNA 2: B16 RNA 2 with C41U, G48A, C49G, U50C, C51U, G52C
- Kd: 8.6 ± 0.9 nM

B20: target 1 insU 3' of 20,insG 3' of 2 (mixed)
RNA 1: B1 RNA 1
RNA 2: B6 RNA 2 with C32A, A33U, A51C, C52G
- Kd: 11.7 ± 0.5 nM

B21: target 1 A9G,A20U (mixed)
RNA 1: B1 RNA 1
RNA 2: B3 RNA 2 with A32U, A49U
- Kd: 48 ± 8 nM

B22: target 1 insG 3' of 16,insC 3' of 13 (mixed)
RNA 1: B1 RNA 1
RNA 2: B1 RNA 2 with G41C, U42G, A44U
- Kd: 34 ± 4 nM

B23: target 1 C6G,A16U (mixed)
RNA 1: B1 RNA 1
RNA 2: B3 RNA 2 with A36U, G43A, C46G, A49U
- Kd: 40.9 ± 3.4 nM

B24: target 1 A18G (mixed)
RNA 1: B1 RNA 1
RNA 2: B3 RNA 2 with A34G, G43A, A49U
- Kd: 94 ± 28 nM

B25: target 1 C4A,G15U (mixed)
RNA 1: B1 RNA 1
RNA 2: B3 RNA 2 with G37U, G43A, C48A, A49U
- Kd: 51 ± 19 nM

B26: target 1 complement block 1-4 (mixed)
RNA 1: B1 RNA 1
RNA 2: B3 RNA 2 with G43A, C48G, C50G, A51U
- Kd: 5.46 ± 0.29 nM

B27: target 1 insG 3' of 16,insU 3' of 7 (mixed)
RNA 1: B1 RNA 1
RNA 2: B1 RNA 2 with A45U, U46C, C47U
- Kd: 22.8 ± 1.8 nM

B28: target 1 C2G,C6U (mixed)
RNA 1: B1 RNA 1
RNA 2: B3 RNA 2 with G43A, C46U, A49U, C50G
- Kd: 4.97 ± 0.22 nM

B29: target 1 insU 3' of 6,insA 3' of 5 (mixed)
RNA 1: B1 RNA 1
RNA 2: B16 RNA 2 with C41U, U43A, A44U, U45C, C47U, C49A, U50C, C51U, G52C
- Kd: 24 ± 2 nM

B30: target 1 insG 3' of 11,insG 3' of 7 (mixed)
RNA 1: B1 RNA 1
RNA 2: B1 RNA 2 with G38A, A39G, G41U, U42G, A45U, U46C, C47G
- Kd: 17.2 ± 0.8 nM

B31: target 1 C2G,U11G (mixed)
RNA 1: B1 RNA 1
RNA 2: B3 RNA 2 with U41G, G43A, A49U, C50G
- Kd: 11 ± 0.6 nM

B32: target 1 A9G,U11A (mixed)
RNA 1: B1 RNA 1
RNA 2: B3 RNA 2 with U41A, A49U
- Kd: 42.7 ± 3.1 nM

B33: target 1 insA 3' of 21,insC 3' of 3 (mixed)
RNA 1: B1 RNA 1
RNA 2: B6 RNA 2 with C32A, A51C
- Kd: 13.2 ± 0.7 nM

B34: target 1 insG 3' of 18,insU 3' of 7 (mixed)
RNA 1: B1 RNA 1
RNA 2: B1 RNA 2 with A36G, G37A, A45U, U46C, C47U
- Kd: 67 ± 8 nM

B35: target 1 C4A,A16G (mixed)
RNA 1: B1 RNA 1
RNA 2: B3 RNA 2 with A36G, G43A, C48A, A49U
- Kd: 17.2 ± 1.5 nM

Source: paper PMC10786891, “Massively parallel profiling of RNA-targeting CRISPR-Cas13d”
